From US20210107981A1 (SUTRO BIOPHARMA, published 2021)
Where two headings read alike, the source gives them in different places.

What was measured:
[1] = biological target: T1, Human PD-1 (ACROBiosystems, Inc., Catalog No. PD1-H5221) (human, UniProt Q15116 25-167); test: SPR (Biacore), IgG as ligand, PD-1-his as sample
T1 construct: Bought recombinant protein; also called huPD1-His; PD-1-his; not shown: His tag of the bought protein (huPD1-His)

[2] = biological target: T2, human PD-1 expressed on the cell surface (CHO-PD1 cells) (human, UniProt Q15116 25-288); test: FACS cell binding on CHO cells expressing human PD-1
T2 construct: Also used here as the target for native PD-1 on human PBMC / T cells in the functional (IFN-g) assays; also called CHO cell line overexpressing human PD-1; Cell-Surface Human PD-1 antigen
T2 sequence (Q15116 25-288 limits assumed): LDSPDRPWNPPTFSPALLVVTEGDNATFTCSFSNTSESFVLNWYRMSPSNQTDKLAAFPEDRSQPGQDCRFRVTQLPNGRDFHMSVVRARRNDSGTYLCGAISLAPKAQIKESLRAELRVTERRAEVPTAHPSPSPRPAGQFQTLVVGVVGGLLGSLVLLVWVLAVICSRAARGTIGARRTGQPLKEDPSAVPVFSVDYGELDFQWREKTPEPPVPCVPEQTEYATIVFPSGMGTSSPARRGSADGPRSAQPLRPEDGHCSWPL
Procedure: (§1) A mix of parental CHO cells and CHO-PD1 cells was prepared as follows: Parental CHO cells were washed 2× in PBS then incubated in PBS containing 1 μM CellTrace™ Oregon Green488® (Life Technologies) at 37° C. for 30 minutes. Cells were then washed 2× with RPMI w/10% fetal calf serum (FCS), washed 2× with FACS buffer (PBS w/2% FCS), suspended thoroughly in ice-cold FACS buffer at a final concentration of 2×10⁶ cells/mL and kept on ice. CHO-PD1 cells were similarly washed with FACS buffer and kept on ice at 2×10⁶ cells/mL. Parental CHO cells and CHO-PD1 cells were then mixed to obtain a 1:1 cell suspension and seeded at 100 μL per well on 96 well polypropylene plates. Plates were spun at 1500 rpm for 5 minutes and cell pellets were suspended in 50 μL FACS buffer containing 6-12 point dilutions of anti-PD-1 variants starting from concentrations of −100-200 nM antibody, dispensed using BioMek FX (Beckman Coulter). Cells were then incubated on ice for 1 hr, washed with FACS buffer and incubated for 1 hr on ice with 50 μL FACS buffer containing 2.5 μg/ml R-phycoerythrin-conjugated goat anti-Human IgG (Jackson ImmunoResearch) or AF647-conjugated goat anti-mouse IgG (Life Technologies) dispensed using BioMek FX (Beckman Coulter). Cells were then washed 2× with FACS buffer and fixed for 10 minutes in 200 μL PBS with 2% paraformaldehyde (PFA) prior to fluorescence detection. Samples were acquired using a Becton Dickinson LSRII FACS. Mean Fluorescence Intensity of PD-1 antibody binding was analyzed using FlowJo® software (Tree Star, Inc.).
The affinity of the IgGs for cell-surface expressed human PD-1 were measured according to Example 6, above.

[3] = biological target: T3, cynomolgus PD-1 expressed on CHO cells (cynomolgus, UniProt B0LAJ3 25-288); test: FACS cell binding on CHO cells expressing cynomolgus PD-1
T3 construct: also called Cell-Surface Cynomolgus PD-1 antigen
T3 sequence (B0LAJ3 entry or part of it limits assumed, form in doubt): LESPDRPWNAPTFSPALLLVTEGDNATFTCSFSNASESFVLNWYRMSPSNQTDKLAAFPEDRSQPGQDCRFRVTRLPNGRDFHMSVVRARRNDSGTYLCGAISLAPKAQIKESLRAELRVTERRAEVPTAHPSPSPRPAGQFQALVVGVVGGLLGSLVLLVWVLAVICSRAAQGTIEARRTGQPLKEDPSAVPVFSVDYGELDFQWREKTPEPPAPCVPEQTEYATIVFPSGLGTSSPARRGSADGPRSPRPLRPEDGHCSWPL
Procedure: as §1
The affinity of the IgGs for cell-surface expressed cynomolgus PD-1 were measured according to Example 6, above.

[4] = biological target: T1, Human PD-1 (ACROBiosystems, Inc., …); test: SPR (Biacore), IgG as ligand, PD-1-his as sample; remark: listed apart in the source

T1 sequence (Q15116 25-167 limits assumed): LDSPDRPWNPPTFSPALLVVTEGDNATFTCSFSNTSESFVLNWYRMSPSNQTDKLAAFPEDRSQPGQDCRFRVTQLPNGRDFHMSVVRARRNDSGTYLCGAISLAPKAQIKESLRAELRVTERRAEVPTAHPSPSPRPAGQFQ

Row | Binder | Kd [1] [nM] | Kd [2] [nM] | Kd [3] [nM] | Kd [4] [nM] | koff [4] [s⁻¹] | kon [4] [M⁻¹ s⁻¹]
1 | h1E9-HC3 × h1E9-LC4 IgG (antibody, Humanized IgG; heavy chain with C-terminal FlagHis tag) heavy: not shown light: MDIVLTQSPDSLAVSLGERATINCRASESVDNSGISFMSWYQQKPGQPPKLLIYTASNQGSGVPDRFSGSGSGTDFTLTISSLQAEDVAVYYCQQSKEVPWTFGQGTKVEIKRTVAAPSVFIFPPSDEQLKSGTASVVCLLNNFYPREAKVQWKVDNALQSGNSQESVTEQDSKDSTYSLSSTLTLSKADYEKHKVYACEVTHQGLSSPVTKSFNRGEC | 9.4 | 9 | 5 | – | – | –
2 | h1E9-HC2 × h1E9-LC4 IgG (antibody, Humanized IgG; heavy chain with C-terminal FlagHis tag) heavy: not shown light: MDIVLTQSPDSLAVSLGERATINCRASESVDNSGISFMSWYQQKPGQPPKLLIYTASNQGSGVPDRFSGSGSGTDFTLTISSLQAEDVAVYYCQQSKEVPWTFGQGTKVEIKRTVAAPSVFIFPPSDEQLKSGTASVVCLLNNFYPREAKVQWKVDNALQSGNSQESVTEQDSKDSTYSLSSTLTLSKADYEKHKVYACEVTHQGLSSPVTKSFNRGEC | 4.96 | 4 | 6 | – | – | –
3 | h1E9-HC1 × h1E9-LC4 IgG (antibody, Humanized IgG; heavy chain with C-terminal FlagHis tag) heavy: not shown light: MDIVLTQSPDSLAVSLGERATINCRASESVDNSGISFMSWYQQKPGQPPKLLIYTASNQGSGVPDRFSGSGSGTDFTLTISSLQAEDVAVYYCQQSKEVPWTFGQGTKVEIKRTVAAPSVFIFPPSDEQLKSGTASVVCLLNNFYPREAKVQWKVDNALQSGNSQESVTEQDSKDSTYSLSSTLTLSKADYEKHKVYACEVTHQGLSSPVTKSFNRGEC | 6.33 | 8 | 11 | – | – | –
4 | h1E9-5-IgG-HC-FLAG-HIS × h1E9-LC4 IgG (antibody, also called h1E9-5 HC × h1E9-LC4) heavy: not shown light: MDIVLTQSPDSLAVSLGERATINCRASESVDNSGISFMSWYQQKPGQPPKLLIYTASNQGSGVPDRFSGSGSGTDFTLTISSLQAEDVAVYYCQQSKEVPWTFGQGTKVEIKRTVAAPSVFIFPPSDEQLKSGTASVVCLLNNFYPREAKVQWKVDNALQSGNSQESVTEQDSKDSTYSLSSTLTLSKADYEKHKVYACEVTHQGLSSPVTKSFNRGEC | 7.31 | 14 | 12 | – | – | –
5 | h1E9-HC3 × h1E9-LC2 IgG (antibody, Humanized IgG; heavy chain with C-terminal FlagHis tag) heavy: not shown light: MDIVLTQSPLSLPVTPGEPASISCRASESVDNSGISFMSWYLQKPGQSPQLLIYTASNQGSGVPDRFSGSGSGTDFTLKISRVEAEDVGVYYCQQSKEVPWTFGQGTKVEIKRTVAAPSVFIFPPSDEQLKSGTASVVCLLNNFYPREAKVQWKVDNALQSGNSQESVTEQDSKDSTYSLSSTLTLSKADYEKHKVYACEVTHQGLSSPVTKSFNRGEC | 3.19 | 19 | 11 | – | – | –
6 | h1E9-5-IgG-HC-FLAG-HIS × h1E9-LC2 IgG (antibody, also called h1E9-5 HC × h1E9-LC2) heavy: not shown light: MDIVLTQSPLSLPVTPGEPASISCRASESVDNSGISFMSWYLQKPGQSPQLLIYTASNQGSGVPDRFSGSGSGTDFTLKISRVEAEDVGVYYCQQSKEVPWTFGQGTKVEIKRTVAAPSVFIFPPSDEQLKSGTASVVCLLNNFYPREAKVQWKVDNALQSGNSQESVTEQDSKDSTYSLSSTLTLSKADYEKHKVYACEVTHQGLSSPVTKSFNRGEC | 16.2 | 16 | 11 | – | – | –
7 | h1E9-HC1 × h1E9-LC2 IgG (antibody, Humanized IgG; heavy chain with C-terminal FlagHis tag) heavy: not shown light: MDIVLTQSPLSLPVTPGEPASISCRASESVDNSGISFMSWYLQKPGQSPQLLIYTASNQGSGVPDRFSGSGSGTDFTLKISRVEAEDVGVYYCQQSKEVPWTFGQGTKVEIKRTVAAPSVFIFPPSDEQLKSGTASVVCLLNNFYPREAKVQWKVDNALQSGNSQESVTEQDSKDSTYSLSSTLTLSKADYEKHKVYACEVTHQGLSSPVTKSFNRGEC | 19 | 12 | 19 | – | – | –
8 | h1E9-HC2 × h1E9-LC2 IgG (antibody, Humanized IgG; heavy chain with C-terminal FlagHis tag) heavy: not shown light: MDIVLTQSPLSLPVTPGEPASISCRASESVDNSGISFMSWYLQKPGQSPQLLIYTASNQGSGVPDRFSGSGSGTDFTLKISRVEAEDVGVYYCQQSKEVPWTFGQGTKVEIKRTVAAPSVFIFPPSDEQLKSGTASVVCLLNNFYPREAKVQWKVDNALQSGNSQESVTEQDSKDSTYSLSSTLTLSKADYEKHKVYACEVTHQGLSSPVTKSFNRGEC | 12.3 | 11 | 9 | – | – | –
9 | h1E9-HC3 × h1E9-LC3 IgG (antibody, Humanized IgG; heavy chain with C-terminal FlagHis tag) heavy: not shown light: MEIVLTQSPGTLSLSPGERATLSCRASESVDNSGISFMSWYQQKPGQAPRLLIYTASNQGSGIPDRFSGSGSGTDFTLTISRLEPEDFAVYYCQQSKEVPWTFGQGTKVEIKRTVAAPSVFIFPPSDEQLKSGTASVVCLLNNFYPREAKVQWKVDNALQSGNSQESVTEQDSKDSTYSLSSTLTLSKADYEKHKVYACEVTHQGLSSPVTKSFNRGEC | 16.9 | 12 | 8 | – | – | –
10 | h1E9-HC2 × h1E9-LC3 IgG (antibody, Humanized IgG; heavy chain with C-terminal FlagHis tag) heavy: not shown light: MEIVLTQSPGTLSLSPGERATLSCRASESVDNSGISFMSWYQQKPGQAPRLLIYTASNQGSGIPDRFSGSGSGTDFTLTISRLEPEDFAVYYCQQSKEVPWTFGQGTKVEIKRTVAAPSVFIFPPSDEQLKSGTASVVCLLNNFYPREAKVQWKVDNALQSGNSQESVTEQDSKDSTYSLSSTLTLSKADYEKHKVYACEVTHQGLSSPVTKSFNRGEC | 10.9 | 9 | 9 | – | – | –
11 | h1E9-5 IgG (antibody, Human IgG1; heavy chain with C-terminal FlagHis tag; made by cell-free expression; also called h1E9-5 human IgG1) heavy: not shown light: MEIVLTQSPATLSLSPGERATLSCRASESVDNSGISFMSWYQQKPGQAPRLLIYTASNQGSGIPARFSGSGSGTDFTLTISSLEPEDFAVYYCQQSKEVPWTFGQGTKVEIKRTVAAPSVFIFPPSDEQLKSGTASVVCLLNNFYPREAKVQWKVDNALQSGNSQESVTEQDSKDSTYSLSSTLTLSKADYEKHKVYACEVTHQGLSSPVTKSFNRGEC | – | – | – | 19.4 | 0.000471 | 24300
12 | h1E9-HC1 × h1E9-LC3 IgG (antibody, Humanized IgG; heavy chain with C-terminal FlagHis tag) heavy: not shown light: MEIVLTQSPGTLSLSPGERATLSCRASESVDNSGISFMSWYQQKPGQAPRLLIYTASNQGSGIPDRFSGSGSGTDFTLTISRLEPEDFAVYYCQQSKEVPWTFGQGTKVEIKRTVAAPSVFIFPPSDEQLKSGTASVVCLLNNFYPREAKVQWKVDNALQSGNSQESVTEQDSKDSTYSLSSTLTLSKADYEKHKVYACEVTHQGLSSPVTKSFNRGEC | 6.38 | 12 | 15 | – | – | –
13 | h1E9-5-IgG-HC-FLAG-HIS × h1E9-LC3 IgG (antibody, also called h1E9-5 HC × h1E9-LC3) heavy: not shown light: MEIVLTQSPGTLSLSPGERATLSCRASESVDNSGISFMSWYQQKPGQAPRLLIYTASNQGSGIPDRFSGSGSGTDFTLTISRLEPEDFAVYYCQQSKEVPWTFGQGTKVEIKRTVAAPSVFIFPPSDEQLKSGTASVVCLLNNFYPREAKVQWKVDNALQSGNSQESVTEQDSKDSTYSLSSTLTLSKADYEKHKVYACEVTHQGLSSPVTKSFNRGEC | 16.3 | 11 | 9 | – | – | –
14 | h1E9-4 IgG (antibody, Human IgG1; heavy chain with C-terminal FlagHis tag; made by cell-free expression; also called h1E9-4 human IgG1) heavy: not shown light: MDIQLTQSPSFLSASVGDRVTITCRASESVDNSGISFMSWYQQKPGKAPKLLIYTASNQGSGVPSRFSGSGSGTEFTLTISSLQPEDFATYYCQQSKEVPWTFGQGTKVEIKRTVAAPSVFIFPPSDEQLKSGTASVVCLLNNFYPREAKVQWKVDNALQSGNSQESVTEQDSKDSTYSLSSTLTLSKADYEKHKVYACEVTHQGLSSPVTKSFNRGEC | – | – | – | 12.4 | 0.000442 | 35600
15 | h1E9-HC2 × h1E9-LC1 IgG (antibody, Humanized IgG; heavy chain with C-terminal FlagHis tag) heavy: not shown light: MDIQLTQSPSSLSASVGDRVTITCRASESVDNSGISFMSWYQQKPGKAPKLLIYTASNQGSGVPSRFSGSGSGTDFTFTISSLQPEDIATYYCQQSKEVPWTFGQGTKVEIKRTVAAPSVFIFPPSDEQLKSGTASVVCLLNNFYPREAKVQWKVDNALQSGNSQESVTEQDSKDSTYSLSSTLTLSKADYEKHKVYACEVTHQGLSSPVTKSFNRGEC | 3.11 | 7 | 6 | – | – | –
